One data set deals with TTERecR (Thermoanaerobacter tengcongensis MB4, UniProt Q8RDI4 1-199). Briefly: SPR; SPR: 20 mM HEPES pH 7.4, 200 mM NaCl, 0.005% Tween 20, 25 C, SA chip; EMSA: 20 mM HEPES pH 7.4, 200 mM NaCl, 25 C, 30 min, 2 uM DNA. On the technique in general: SPR reads the build-up and loss of mass on a sensor chip optically.
The target of the next data set is TTERecR;TTERecO (Thermoanaerobacter tengcongensis …, UniProt Q8RDI4;Q8RB48 1-199;1-247, |). Described as above.
The target in the next data set is TTERecR P16G;TTERecO (Thermoanaerobacter tengcongensis …, UniProt Q8RDI4;Q8RB48 1-199;1-247, P19G|). Put plainly: SPR; as strong as RecOR; SPR: 20 mM HEPES pH 7.4, 200 mM NaCl, 0.005% Tween 20, 25 C, SA chip; EMSA: 20 mM HEPES pH 7.4, 200 mM NaCl, 25 C, 30 min, 2 uM DNA.
The target of the next data set is TTERecR R25G;TTERecO (Thermoanaerobacter tengcongensis …, UniProt Q8RDI4;Q8RB48 1-199;1-247, R28G|). Described as above.
The target in the next data set is TTERecO (Thermoanaerobacter tengcongensis MB4, UniProt Q8RB48 1-247). Put plainly: EMSA; 10 uM protein, 2 uM DNA; SPR: 20 mM HEPES pH 7.4, 200 mM NaCl, 0.005% Tween 20, 25 C, SA chip; EMSA: 20 mM HEPES pH 7.4, 200 mM NaCl, 25 C, 30 min, 2 uM DNA. Particulars: protein: recombinant; tags: N-terminal His6; label: 5' biotin (SPR). In general terms: In EMSA bound probe runs differently from free probe, usually more slowly.

For a further data set, the target named is TTERecR R25G (Thermoanaerobacter tengcongensis MB4, UniProt Q8RDI4 1-199, R28G). Briefly: SPR; SPR: 20 mM HEPES pH 7.4, 200 mM NaCl, 0.005% Tween 20, 25 C, SA chip; EMSA: 20 mM HEPES pH 7.4, 200 mM NaCl, 25 C, 30 min, 2 uM DNA.
For another data set, the target named is TTERecR P16G (Thermoanaerobacter tengcongensis MB4, UniProt Q8RDI4 1-199, P19G). The description is as above.

This note sets out measurements from article PMC3510498, “RecOR complex including RecR N-N dimer and RecO monomer displays a high affinity for ssDNA”.

Broadly, the Kd is the free concentration of one partner at which half of the binding sites on the other are occupied at equilibrium, for simple one-to-one binding. High values mean lower affinity, low ones higher affinity.

B1: 60 mer ssDNA (ssDNA)
DNA: ATAAATATCGATGTTAAAGAGGATAAGATTTATAAAATAGCTTCTTATTTTCCTGTAGTA
Regarding B1, the binding result was “no binding” with TTERecR, “binds” with TTERecR P16G;TTERecO, “binds” in the data set with TTERecR R25G;TTERecO and “no binding” in the data set with TTERecO. The dissociation constant (Kd) with TTERecR;TTERecO is 0.931 nM.

B2: 60 mer dsDNA (dsDNA)
DNA 1: ATAAATATCGATGTTAAAGAGGATAAGATTTATAAAATAGCTTCTTATTTTCCTGTAGTA
DNA 2: TACTACAGGAAAATAAGAAGCTATTTTATAAATCTTATCCTCTTTAACATCGATATTTAT
With B2, the dissociation constant Kd with TTERecR stood at 24800 nM; with TTERecR;TTERecO, 26.4 nM. Further, the binding result with TTERecR R25G is “no binding”; with TTERecR P16G it was “no binding”; with TTERecR P16G;TTERecO it was “binds”; with TTERecR R25G;TTERecO, “binds”.
